US20260250420A1 (SICHUAN KELUN BIOTECH BIOPHARMACEUTICAL, published 2026)

B1: 101A6HZ (anti-human PTK7 humanized antibody) (antibody, human IgG1, kappa)
heavy: not shown
light: DIVMTQSPDSLAVSLGERATINCKASQDVGSAVIWYQQKPGQSPKLLIYWASTRHTGVPDRFSGSGSGTDFTLTISSLQAEDVAVYYCQQYSSYPLTFGQGTKLEIKRTVAAPSVFIFPPSDEQLKSGTASVVCLLNNFYPREAKVQWKVDNALQSGNSQESVTEQDSKDSTYSLSSTLTLSKADYEKHKVYACEVTHQGLSSPVTKSFNRGEC
B2: Hu24 (PTK7 control antibody, taken from Hu24 in the Patent CN201580030255) (antibody)
chain 1: QVQLVQSGPEVKKPGASVKVSCKASGYTFTDYAVHWVRQAPGKRLEWIGVISTYNDYTYNNQDFKGRVTMTRDTSASTAYMELSRLRSEDTAVYYCARGNSYFYALDYWGQGTSVTVSS
chain 2: EIVLTQSPATLSLSPGERATLSCRASESVDSYGKSFMHWYQQKPGQAPRLLIYRASNLESGIPARFSGSGSGTDFTLTISSLEPEDFAVYYCQQSNEDPWTFGGGTKLEIK

Columns and labels:
[1] = target: T1, human Fc receptor protein FcRn (human, UniProt P55899 24-297; P61769 21-119, biotinylated); experiment: BLI (ForteBio), biotinylated receptor on SA sensor, antibody from 5,000 nM, 1:1 global fit
T1 construct: Biotinylated protein captured on SA sensors
From the text: The dynamic affinity of the antibodies 101A6HZ, 101A6HZm and Hu24 with human Fc receptor proteins CD16a, CD32a, CD32b, CD64 and FcRn was detected through ForteBio (Pall life sciences).

[2] = target: T2, monkey PTK7 protein (extracellular sequence of monkey PTK7 with C-terminal 6×His tag) (monkey); experiment: ELISA, coated monkey PTK7 protein 1 µg/ml
T2 chain: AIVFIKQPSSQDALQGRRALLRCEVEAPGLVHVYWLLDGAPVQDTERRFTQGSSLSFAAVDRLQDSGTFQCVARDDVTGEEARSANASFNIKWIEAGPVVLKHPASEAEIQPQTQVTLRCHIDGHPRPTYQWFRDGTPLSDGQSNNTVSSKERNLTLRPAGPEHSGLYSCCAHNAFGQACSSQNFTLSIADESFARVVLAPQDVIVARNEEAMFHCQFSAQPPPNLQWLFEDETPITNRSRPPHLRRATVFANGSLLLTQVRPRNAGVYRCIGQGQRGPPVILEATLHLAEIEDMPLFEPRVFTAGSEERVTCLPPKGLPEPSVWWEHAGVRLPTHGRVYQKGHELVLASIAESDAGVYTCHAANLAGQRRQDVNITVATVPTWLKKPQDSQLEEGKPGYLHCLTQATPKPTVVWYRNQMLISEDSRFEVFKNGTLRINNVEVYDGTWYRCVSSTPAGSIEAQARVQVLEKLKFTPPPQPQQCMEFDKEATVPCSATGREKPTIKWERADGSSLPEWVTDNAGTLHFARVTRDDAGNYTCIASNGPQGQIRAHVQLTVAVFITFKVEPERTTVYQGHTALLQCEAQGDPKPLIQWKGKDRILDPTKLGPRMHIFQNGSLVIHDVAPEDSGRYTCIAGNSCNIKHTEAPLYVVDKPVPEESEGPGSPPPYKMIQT
Protocol: Original data was imported into software for nonlinear curve fitting, and EC₅₀ of binding of each antibody to human PTK7 and monkey PTK7 was calculated, respectively. As shown in Table 1 and FIGS. 1A-1B, the screened antibodies could be bound to the human and monkey PTK7 proteins with affinity higher than that of the control antibody Hu24.

[3] = target: T3, human PTK7 on cells (tumor cells endogenously expressing PTK7); CHO-hPTK7, CHO-S-hPTK7 and 293T-hPTK7 … (human, UniProt Q13308 31-1070); experiment: flow cytometry on H1299 cells endogenously expressing PTK7
T3 construct: whole, on cells; The cell line of each value is named under assay; also called H1299; H358
T3 sequence (looked up): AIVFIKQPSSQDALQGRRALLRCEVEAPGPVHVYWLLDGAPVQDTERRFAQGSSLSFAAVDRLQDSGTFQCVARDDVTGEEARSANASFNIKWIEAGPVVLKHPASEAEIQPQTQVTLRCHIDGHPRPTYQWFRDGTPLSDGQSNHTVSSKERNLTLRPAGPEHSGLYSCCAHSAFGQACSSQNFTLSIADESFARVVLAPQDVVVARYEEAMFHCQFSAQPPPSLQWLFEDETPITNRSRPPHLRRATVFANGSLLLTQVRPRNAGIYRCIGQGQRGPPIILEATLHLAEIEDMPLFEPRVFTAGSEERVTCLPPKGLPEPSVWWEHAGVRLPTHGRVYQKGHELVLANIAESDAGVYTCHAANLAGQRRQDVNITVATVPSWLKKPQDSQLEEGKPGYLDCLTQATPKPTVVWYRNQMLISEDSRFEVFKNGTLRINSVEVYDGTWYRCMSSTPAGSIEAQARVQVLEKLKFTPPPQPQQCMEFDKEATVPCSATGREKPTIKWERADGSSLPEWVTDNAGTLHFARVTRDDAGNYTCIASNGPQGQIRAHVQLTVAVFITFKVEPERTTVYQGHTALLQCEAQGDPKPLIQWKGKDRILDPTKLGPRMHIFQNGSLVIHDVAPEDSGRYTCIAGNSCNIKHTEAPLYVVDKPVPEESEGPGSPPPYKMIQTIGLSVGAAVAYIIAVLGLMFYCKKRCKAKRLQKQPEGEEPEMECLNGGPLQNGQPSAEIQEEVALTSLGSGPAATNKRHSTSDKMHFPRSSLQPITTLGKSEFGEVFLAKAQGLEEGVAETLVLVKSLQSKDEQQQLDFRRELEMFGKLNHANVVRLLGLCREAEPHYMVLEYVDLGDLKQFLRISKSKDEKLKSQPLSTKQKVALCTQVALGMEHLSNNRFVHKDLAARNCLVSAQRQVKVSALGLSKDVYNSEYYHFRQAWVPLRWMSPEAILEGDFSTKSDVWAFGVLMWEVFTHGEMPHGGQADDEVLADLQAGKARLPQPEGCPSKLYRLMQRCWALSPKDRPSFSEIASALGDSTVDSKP

[4] = target: T3, human PTK7 on cells (tumor cells …); experiment: competition flow cytometry on 293T-hPTK7 cells, streptavidin-PE; competitor: biotin-labelled Hu24

T1 sequence (P55899 24-297 limits assumed, form in doubt, chain 1 of 2): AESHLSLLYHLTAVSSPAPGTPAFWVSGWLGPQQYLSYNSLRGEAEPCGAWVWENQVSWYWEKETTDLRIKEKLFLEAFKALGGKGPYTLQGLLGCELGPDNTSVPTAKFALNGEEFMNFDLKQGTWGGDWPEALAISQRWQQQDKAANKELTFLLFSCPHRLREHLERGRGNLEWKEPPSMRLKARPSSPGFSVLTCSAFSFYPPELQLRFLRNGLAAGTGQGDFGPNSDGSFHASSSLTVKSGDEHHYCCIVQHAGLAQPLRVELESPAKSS
T1 sequence (P61769 21-119 limits assumed, form in doubt, chain 2 of 2): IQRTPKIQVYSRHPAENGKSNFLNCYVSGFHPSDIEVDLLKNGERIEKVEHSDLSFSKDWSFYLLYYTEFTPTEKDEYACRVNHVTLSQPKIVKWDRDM

Binder | Kd [1] | EC50 [2] | EC50 [3] | IC50 (read off the curve) [4]
B1 | 11.8 nM |  |  | 
B2 |  | 0.0133 µg/mL | 0.293 µg/mL | ~0.3 µg/mL
